Publication PMC10917881, “Biochemical characterization of L-asparaginase isoforms from Rhizobium etli—the boosting effect of zinc” (Frontiers in Chemistry, 2024)

What was measured:
[1] = biological target: Rhizobium etli L-asparaginase ReAIV (constitutive, thermostable), wild type (Rhizobium etli); assay: mass photometry; Refeyn One mass photometer; protein diluted to 20-50 nM; buffers 50 mM Tris-HCl pH 8.0 or 30 mM carbonate pH 9.0; absence or presence of Zn2+ and/or Mg2+; dimer to monomers
[2] = biological target: Rhizobium etli L-asparaginase ReAV (inducible, thermolabile), wild type (Rhizobium etli); assay: as above

Row | stoichiometry N [1] | stoichiometry N [2] | Substance
1 | 2 |  | Rhizobium etli L-asparaginase ReAIV (constitutive, thermostable), wild type (enzyme)
2 |  | 2 | Rhizobium etli L-asparaginase ReAV (inducible, thermolabile), wild type (enzyme)
